{"source": "patent US20260242419A1", "about": "“A CYCLIC PEPTIDE FOR TRAPPING INTERLEUKIN-1 BETA” (Merck Sharp & Dohme LLC, priority 2023, published 2026)", "binders": {"B1": {"name": "SEQ ID NO: 50 (peptide)", "peptide": "cyclo([TyrEtNAc][Ala(1-bicyclo(1.1.1)pentyl)][Phe(4-COOH)]G[Pro(cis-4-F)][Trp(βS-Me,4-F)][Aib]EW[Aib][Ala(pyrimidin-5-yl)]Q[Dab]G[dPro(4R-(4-pyridylmethyl))])", "SMILES": "CC(=O)NCCOc1ccc(C[C@@H]2NC(=O)[C@H]3C[C@@H](Cc4ccncc4)CN3C(=O)CNC(=O)[C@H](CCN)NC(=O)[C@H](CCC(N)=O)NC(=O)[C@H](Cc3cncnc3)NC(=O)C(C)(C)NC(=O)[C@H](Cc3c[nH]c4ccccc34)NC(=O)[C@H](CCC(=O)O)NC(=O)C(C)(C)NC(=O)[C@H]([C@@H](C)c3c[nH]c4cccc(F)c34)NC(=O)[C@@H]3C[C@H](F)CN3C(=O)CNC(=O)[C@H](Cc3ccc(C(=O)O)cc3)NC(=O)[C@H](CC34CC(C3)C4)NC2=O)cc1"}, "B2": {"name": "SEQ ID NO: 47 (peptide)", "peptide": "cyclo([Bip(4'-COOH)][4Pal][Phe(4-COOH)]G[Pro(cis-4-F)][Trp(βS-Me,4-F)][Aib]EW[Aib][4Pal]Q[Dap]G[dPro(4R-(4-pyridylmethyl))])", "SMILES": "C[C@@H](c1c[nH]c2cccc(F)c12)[C@@H]1NC(=O)[C@@H]2C[C@H](F)CN2C(=O)CNC(=O)[C@H](Cc2ccc(C(=O)O)cc2)NC(=O)[C@H](Cc2ccncc2)NC(=O)[C@H](Cc2ccc(-c3ccc(C(=O)O)cc3)cc2)NC(=O)[C@H]2C[C@@H](Cc3ccncc3)CN2C(=O)CNC(=O)[C@H](CN)NC(=O)[C@H](CCC(N)=O)NC(=O)[C@H](Cc2ccncc2)NC(=O)C(C)(C)NC(=O)[C@H](Cc2c[nH]c3ccccc23)NC(=O)[C@H](CCC(=O)O)NC(=O)C(C)(C)NC1=O"}, "B3": {"name": "SEQ ID NO: 48 (peptide)", "peptide": "cyclo([Bip(4'-COOH)][Ala(1-bicyclo(1.1.1)pentyl)][Phe(4-COOH)]G[Pro(cis-4-F)][Trp(βS-Me,4-F)][Aib]EW[Aib][4Pal]Q[Dap]G[dPro(4R-(4-pyridylmethyl))])"}, "B4": {"name": "SEQ ID NO: 43 (peptide)", "peptide": "cyclo([Bip(4'-COOH)][Ala(1-bicyclo(1.1.1)pentyl)][Phe(4-COOH)]G[Pro(cis-4-F)][Trp(βS-Me,4-F)][Aib]EW[Aib][Ala(pyrimidin-5-yl)]Q[Dab]G[dPro(4R-(4-pyridylmethyl))])", "SMILES": "C[C@@H](c1c[nH]c2cccc(F)c12)[C@@H]1NC(=O)[C@@H]2C[C@H](F)CN2C(=O)CNC(=O)[C@H](Cc2ccc(C(=O)O)cc2)NC(=O)[C@H](CC23CC(C2)C3)NC(=O)[C@H](Cc2ccc(-c3ccc(C(=O)O)cc3)cc2)NC(=O)[C@H]2C[C@@H](Cc3ccncc3)CN2C(=O)CNC(=O)[C@H](CCN)NC(=O)[C@H](CCC(N)=O)NC(=O)[C@H](Cc2cncnc2)NC(=O)C(C)(C)NC(=O)[C@H](Cc2c[nH]c3ccccc23)NC(=O)[C@H](CCC(=O)O)NC(=O)C(C)(C)NC1=O"}, "B5": {"name": "SEQ ID NO: 44 (peptide)", "peptide": "cyclo([Bip(4'-COOH)][Ala(1-bicyclo(1.1.1)pentyl)][Phe(4-COOH)]G[Pro(cis-4-F)][Trp(βS-Me,4-F)][Aib]SW[Aib][Ala(pyrimidin-5-yl)]Q[Dab]G[dPro(4R-(4-pyridylmethyl))])"}, "B6": {"name": "SEQ ID NO: 45 (peptide)", "peptide": "cyclo([Bip(4'-COOH)][Ala(1-bicyclo(1.1.1)pentyl)][Phe(4-COOH)]G[Pro(cis-4-F)][Trp(βS-Me,4-F)][Aib]EW[Aib][4Pal]Q[Dab]G[dPro(4R-(4-pyridylmethyl))])", "SMILES": "C[C@@H](c1c[nH]c2cccc(F)c12)[C@@H]1NC(=O)[C@@H]2C[C@H](F)CN2C(=O)CNC(=O)[C@H](Cc2ccc(C(=O)O)cc2)NC(=O)[C@H](CC23CC(C2)C3)NC(=O)[C@H](Cc2ccc(-c3ccc(C(=O)O)cc3)cc2)NC(=O)[C@H]2C[C@@H](Cc3ccncc3)CN2C(=O)CNC(=O)[C@H](CCN)NC(=O)[C@H](CCC(N)=O)NC(=O)[C@H](Cc2ccncc2)NC(=O)C(C)(C)NC(=O)[C@H](Cc2c[nH]c3ccccc23)NC(=O)[C@H](CCC(=O)O)NC(=O)C(C)(C)NC1=O"}, "B7": {"name": "SEQ ID NO: 49 (peptide)", "peptide": "cyclo([TyrEtNAc][4Pal][Phe(4-COOH)]G[Pro(cis-4-F)][Trp(βS-Me,4-F)][Aib]EW[Aib][Ala(pyrimidin-5-yl)]Q[Dab]G[dPro(4R-(4-pyridylmethyl))])", "SMILES": "CC(=O)NCCOc1ccc(C[C@@H]2NC(=O)[C@H]3C[C@@H](Cc4ccncc4)CN3C(=O)CNC(=O)[C@H](CCN)NC(=O)[C@H](CCC(N)=O)NC(=O)[C@H](Cc3cncnc3)NC(=O)C(C)(C)NC(=O)[C@H](Cc3c[nH]c4ccccc34)NC(=O)[C@H](CCC(=O)O)NC(=O)C(C)(C)NC(=O)[C@H]([C@@H](C)c3c[nH]c4cccc(F)c34)NC(=O)[C@@H]3C[C@H](F)CN3C(=O)CNC(=O)[C@H](Cc3ccc(C(=O)O)cc3)NC(=O)[C@H](Cc3ccncc3)NC2=O)cc1"}, "B8": {"name": "SEQ ID NO: 51 (peptide)", "peptide": "cyclo([Bip(4'-COOH)][4Pal][Phe(4-COOH)]G[Pro(cis-4-F)][Trp(βS-Me,4-F)][Aib]EW[Aib][Ala(pyrimidin-5-yl)]Q[Dab]G[dPro(3S-(4-Br-benzyl))])"}, "B9": {"name": "SEQ ID NO: 46 (peptide)", "peptide": "cyclo([Bip(4'-COOH)][Ala(1-bicyclo(1.1.1)pentyl)][Phe(4-COOH)]G[Pro(cis-4-F)][Trp(βS-Me,4-F)][Aib]EW[Aib][Ala(pyrimidin-5-yl)]Q[Dap]G[dPro(4R-(4-pyridylmethyl))])", "SMILES": "C[C@@H](c1c[nH]c2cccc(F)c12)[C@@H]1NC(=O)[C@@H]2C[C@H](F)CN2C(=O)CNC(=O)[C@H](Cc2ccc(C(=O)O)cc2)NC(=O)[C@H](CC23CC(C2)C3)NC(=O)[C@H](Cc2ccc(-c3ccc(C(=O)O)cc3)cc2)NC(=O)[C@H]2C[C@@H](Cc3ccncc3)CN2C(=O)CNC(=O)[C@H](CN)NC(=O)[C@H](CCC(N)=O)NC(=O)[C@H](Cc2cncnc2)NC(=O)C(C)(C)NC(=O)[C@H](Cc2c[nH]c3ccccc23)NC(=O)[C@H](CCC(=O)O)NC(=O)C(C)(C)NC1=O"}, "B10": {"name": "SEQ ID NO: 5 (peptide)", "peptide": "cyclo([Bip(4'-COOH)][4Pal][Phe(4-COOH)]G[Pro(cis-4-F)][Trp(βS-Me,4-F)][Aib]SW[Aib]SQ[Dab]G[dPro(4R-Bzl(4-F))])", "SMILES": "C[C@@H](c1c[nH]c2cccc(F)c12)[C@@H]1NC(=O)[C@@H]2C[C@H](F)CN2C(=O)CNC(=O)[C@H](Cc2ccc(C(=O)O)cc2)NC(=O)[C@H](Cc2ccncc2)NC(=O)[C@H](Cc2ccc(-c3ccc(C(=O)O)cc3)cc2)NC(=O)[C@H]2C[C@@H](Cc3ccc(F)cc3)CN2C(=O)CNC(=O)[C@H](CCN)NC(=O)[C@H](CCC(N)=O)NC(=O)[C@H](CO)NC(=O)C(C)(C)NC(=O)[C@H](Cc2c[nH]c3ccccc23)NC(=O)[C@H](CO)NC(=O)C(C)(C)NC1=O"}}, "target": "Recombinant human IL-1β (BioLegend 579404) (human, UniProt P01584 117-269)", "test": "cell-based or functional assay", "note": "Starred links: 1 amine or outer side, 2 acyl side, 3 side chain; linkers in the order of their positions; H or OH if unused. Non-standard residues stand in square brackets, D forms with d. TyrEtNAc = (2S)-3-[4-(2-acetamidoethoxy)phenyl]-2-amino-propanoic acid, CC(=O)NCCOc1ccc(C[C@H](N[*:1])C(=O)[*:2])cc1; dPro(4R-(4-pyridylmethyl)) = O=C(O)[C@H]1C[C@@H](Cc2ccncc2)CN1; dPro(3S-(4-Br-benzyl)) = O=C(O)[C@@H]1NCC[C@@H]1Cc1ccc(Br)cc1; Trp(βS-Me,4-F) = C[C@@H](c1c[nH]c2cccc(F)c12)[C@H](N)C(=O)O; Bip(4'-COOH) = N[C@@H](Cc1ccc(-c2ccc(C(=O)O)cc2)cc1)C(=O)O; Ala(1-bicyclo(1.1.1)pentyl) = N[C@@H](CC12CC(C1)C2)C(=O)O; dPro(4R-Bzl(4-F)) = O=C(O)[C@H]1C[C@@H](Cc2ccc(F)cc2)CN1; Ala(pyrimidin-5-yl) = N[C@@H](Cc1cncnc1)C(=O)O; Phe(4-COOH) = N[C@@H](Cc1ccc(C(=O)O)cc1)C(=O)O; Pro(cis-4-F) = O=C(O)[C@@H]1C[C@H](F)CN1; 4Pal = N[C@@H](Cc1ccncc1)C(=O)O; Dab = NCC[C@H](N)C(=O)O; Dap = NC[C@H](N)C(=O)O; Aib = CC(C)(N)C(=O)O", "data": [{"binder": "B1", "values": [{"measurement": "MRC5 IC50", "value": 0.044, "unit": "nM"}]}, {"binder": "B2", "values": [{"measurement": "MRC5 IC50", "value": 0.029, "unit": "nM"}]}, {"binder": "B3", "values": [{"measurement": "MRC5 IC50", "value": 0.027, "unit": "nM"}]}, {"binder": "B4", "values": [{"measurement": "MRC5 IC50", "value": 0.026, "unit": "nM"}]}, {"binder": "B5", "values": [{"measurement": "MRC5 IC50", "value": 0.021, "unit": "nM"}]}, {"binder": "B6", "values": [{"measurement": "MRC5 IC50", "value": 0.027, "unit": "nM"}]}, {"binder": "B7", "values": [{"measurement": "MRC5 IC50", "value": 0.047, "unit": "nM"}]}, {"binder": "B8", "values": [{"measurement": "MRC5 IC50", "value": 0.014, "unit": "nM"}]}, {"binder": "B9", "values": [{"measurement": "MRC5 IC50", "value": 0.034, "unit": "nM"}]}, {"binder": "B10", "values": [{"measurement": "MRC5 IC50", "value": 0.039, "unit": "nM"}]}]}
